system: PPO-deficient BT3 E. coli (ΔPPO); experiment: PPO-inhibiting herbicide tolerance test of PPO variants in E. coli (growth on herbicide-containing LB agar); assay type: cell-based; details: CyPPO18 variants in BT3 (ΔPPO) E. coli; LB agar with 0 to 2,000 μM herbicide, 37° C., dark, 16-20 hours
How it was run: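 Transformants were grown to OD600 0.5–1, adjusted to OD600=0.5 and spotted as 10-fold dilutions on LB agar with ampicillin (100 μg/mL) and 0 to 2,000 μM herbicide. Plates were kept at 37° C in the dark for 16-20 hours; growth was scored relative to wild type, one '+' per 10-fold resistance.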

Molecule	tolerance level relative to wild type, Carfentrazone	tolerance level relative to wild type, Flumioxazin	tolerance level relative to wild type, Fomesafen	tolerance level relative to wild type, Oxyfluorfen	tolerance level relative to wild type, Saflufenacil	tolerance level relative to wild type, Sulfentrazone	tolerance level relative to wild type, Tiafenacil
CyPPO18 R89A + V165S + V305M + F360I: variant of CyPPO18 PPO protein (SEQ ID NO: 3) (protein, Synthetic_PPO of Thermosynechococcus vulcanus NIES-2134 (BAY51976)) MIEVDVAIVGGGLSGLSVAWRLQRSAPHYSGVLLEASDRLGGNITTQAAEGFVWELGPNSFAPTPALLQLIAEVGLHSELIRGDRHLPAYIYWRGELYPLEPTRPLALATSNLLSPWGKVRAALGALGFVPPYLGSGDESVDSFFRRHLGQEVAERLVAPFVSGSYAGDPQQLSAAAAFRRIAQLEKLGGSLIAGALRLRRQQPPQPKPPAQVQMRPGELGSFREGLAALPRAIAQQLKAPLHLQTPVEAITPEPKGGYLLRSGEQTWHARSVVLATPAYQSAELVAPFQPAIARALATIPYPTMACVVLAYPAGLGRSVRPGFGVLVPRGQGIRTLGTIWSSCLFPQRTPAGWQVFTSIIGGATDPDLASLREEAIVEQVQQDLTRLLDLPAAKARLLGMKVWRRAIPQYIVGYPQQWQQLTHALTQTPGLFLCSNYAEGVALGDRVEHGNRTAAAVAAYLAGGQS	++ (‘+’ per each 10-fold resistance)	+++++ (until ‘+++++’ as maximal resistance)	+++++ (until ‘+++++’ as maximal resistance)	++ (‘+’ per each 10-fold resistance)	+++++ (until ‘+++++’ as maximal resistance)	+++++ (until ‘+++++’ as maximal resistance)	+++++ (until ‘+++++’ as maximal resistance)
CyPPO18 R89A + V165C + A167L + V305M + F360I: variant of CyPPO18 PPO protein (SEQ ID NO: 3) (protein, Synthetic_PPO of Thermosynechococcus vulcanus NIES-2134 (BAY51976)) MIEVDVAIVGGGLSGLSVAWRLQRSAPHYSGVLLEASDRLGGNITTQAAEGFVWELGPNSFAPTPALLQLIAEVGLHSELIRGDRHLPAYIYWRGELYPLEPTRPLALATSNLLSPWGKVRAALGALGFVPPYLGSGDESVDSFFRRHLGQEVAERLVAPFVSGCYLGDPQQLSAAAAFRRIAQLEKLGGSLIAGALRLRRQQPPQPKPPAQVQMRPGELGSFREGLAALPRAIAQQLKAPLHLQTPVEAITPEPKGGYLLRSGEQTWHARSVVLATPAYQSAELVAPFQPAIARALATIPYPTMACVVLAYPAGLGRSVRPGFGVLVPRGQGIRTLGTIWSSCLFPQRTPAGWQVFTSIIGGATDPDLASLREEAIVEQVQQDLTRLLDLPAAKARLLGMKVWRRAIPQYIVGYPQQWQQLTHALTQTPGLFLCSNYAEGVALGDRVEHGNRTAAAVAAYLAGGQS	++ (‘+’ per each 10-fold resistance)	+++++ (until ‘+++++’ as maximal resistance)	+++++ (until ‘+++++’ as maximal resistance)	++ (‘+’ per each 10-fold resistance)	+++++ (until ‘+++++’ as maximal resistance)	+++++ (until ‘+++++’ as maximal resistance)	+++++ (until ‘+++++’ as maximal resistance)

same assay, conditions: CyPPO19 variants in BT3 (ΔPPO) E. coli; LB agar with 0 to 2,000 μM herbicide, 37° C., dark, 16-20 hours

Molecule	tolerance level relative to wild type, Carfentrazone	tolerance level relative to wild type, Flumioxazin	tolerance level relative to wild type, Fomesafen	tolerance level relative to wild type, Oxyfluorfen	tolerance level relative to wild type, Saflufenacil	tolerance level relative to wild type, Sulfentrazone	tolerance level relative to wild type, Tiafenacil
CyPPO19 R89A + A167C + F360L: variant of CyPPO19 PPO protein (SEQ ID NO: 1) (protein, Synthetic_PPO of Thermosynechococcus elongatus PKUAC-SCTE542 (comprising GenBank No. CP032152.1)) MSEVDVAIVGGGLSGLSLAWRLQQSAPQYSVVLLEASDRLGGNITTQTAEGFVWELGPNSFAPTPALLQLIAEVGLQSELIRGDRHLPAYIYWRGQLYPLQPTRPLALATSNLLSPWGKVRAALGALGFVPPYLGSGDESVNSFFRRHLGQEVAERLVAPFVSGVYCGDPQQLSAAAAFRRIAQLEKLGGGLIAGALHLRRQQAPKPKPPTSVQMRPGELGSFKEGLAALPRAIAQQLKAPIHLQTPVQEITPDPKGGYLLRSGEQTWRARSVVLATPAYQTAELVAPFQPAIARVLATIPYPTVACVVLAYPAGLGRSVRPGFGVLIPRSQGIRTLGTIWSSCLFPQRTPAGWQVFTSLIGGATDPDLASLSEEAIVQQVQQDLNRLLDLPAAKARLLGMKVWRRAIPQYMVGYPEQWQQVTHALSQTPGLFLCSNYAEGVALGDRVEHGNRTAAAVAAYLSGGQP	++ (‘+’ per each 10-fold resistance)	++++ (‘+’ per each 10-fold resistance)	++ (‘+’ per each 10-fold resistance)	+++ (‘+’ per each 10-fold resistance)	++++ (‘+’ per each 10-fold resistance)	++++ (‘+’ per each 10-fold resistance)	++++ (‘+’ per each 10-fold resistance)
CyPPO19 R89A + V305M + F360V: variant of CyPPO19 PPO protein (SEQ ID NO: 1) (protein, Synthetic_PPO of Thermosynechococcus elongatus PKUAC-SCTE542 (comprising GenBank No. CP032152.1)) MSEVDVAIVGGGLSGLSLAWRLQQSAPQYSVVLLEASDRLGGNITTQTAEGFVWELGPNSFAPTPALLQLIAEVGLQSELIRGDRHLPAYIYWRGQLYPLQPTRPLALATSNLLSPWGKVRAALGALGFVPPYLGSGDESVNSFFRRHLGQEVAERLVAPFVSGVYAGDPQQLSAAAAFRRIAQLEKLGGGLIAGALHLRRQQAPKPKPPTSVQMRPGELGSFKEGLAALPRAIAQQLKAPIHLQTPVQEITPDPKGGYLLRSGEQTWRARSVVLATPAYQTAELVAPFQPAIARVLATIPYPTMACVVLAYPAGLGRSVRPGFGVLIPRSQGIRTLGTIWSSCLFPQRTPAGWQVFTSVIGGATDPDLASLSEEAIVQQVQQDLNRLLDLPAAKARLLGMKVWRRAIPQYMVGYPEQWQQVTHALSQTPGLFLCSNYAEGVALGDRVEHGNRTAAAVAAYLSGGQP	+ (‘+’ per each 10-fold resistance)	+++ (‘+’ per each 10-fold resistance)	+ (‘+’ per each 10-fold resistance)	+ (‘+’ per each 10-fold resistance)	+++ (‘+’ per each 10-fold resistance)	++ (‘+’ per each 10-fold resistance)	+++ (‘+’ per each 10-fold resistance)
CyPPO19 R89A + V305M + F360I: variant of CyPPO19 PPO protein (SEQ ID NO: 1) (protein, Synthetic_PPO of Thermosynechococcus elongatus PKUAC-SCTE542 (comprising GenBank No. CP032152.1)) MSEVDVAIVGGGLSGLSLAWRLQQSAPQYSVVLLEASDRLGGNITTQTAEGFVWELGPNSFAPTPALLQLIAEVGLQSELIRGDRHLPAYIYWRGQLYPLQPTRPLALATSNLLSPWGKVRAALGALGFVPPYLGSGDESVNSFFRRHLGQEVAERLVAPFVSGVYAGDPQQLSAAAAFRRIAQLEKLGGGLIAGALHLRRQQAPKPKPPTSVQMRPGELGSFKEGLAALPRAIAQQLKAPIHLQTPVQEITPDPKGGYLLRSGEQTWRARSVVLATPAYQTAELVAPFQPAIARVLATIPYPTMACVVLAYPAGLGRSVRPGFGVLIPRSQGIRTLGTIWSSCLFPQRTPAGWQVFTSIIGGATDPDLASLSEEAIVQQVQQDLNRLLDLPAAKARLLGMKVWRRAIPQYMVGYPEQWQQVTHALSQTPGLFLCSNYAEGVALGDRVEHGNRTAAAVAAYLSGGQP	+ (‘+’ per each 10-fold resistance)	+++ (‘+’ per each 10-fold resistance)	+ (‘+’ per each 10-fold resistance)	+ (‘+’ per each 10-fold resistance)	+++ (‘+’ per each 10-fold resistance)	++ (‘+’ per each 10-fold resistance)	+++ (‘+’ per each 10-fold resistance)
CyPPO19 R89A + A167L + F360T: variant of CyPPO19 PPO protein (SEQ ID NO: 1) (protein, Synthetic_PPO of Thermosynechococcus elongatus PKUAC-SCTE542 (comprising GenBank No. CP032152.1)) MSEVDVAIVGGGLSGLSLAWRLQQSAPQYSVVLLEASDRLGGNITTQTAEGFVWELGPNSFAPTPALLQLIAEVGLQSELIRGDRHLPAYIYWRGQLYPLQPTRPLALATSNLLSPWGKVRAALGALGFVPPYLGSGDESVNSFFRRHLGQEVAERLVAPFVSGVYLGDPQQLSAAAAFRRIAQLEKLGGGLIAGALHLRRQQAPKPKPPTSVQMRPGELGSFKEGLAALPRAIAQQLKAPIHLQTPVQEITPDPKGGYLLRSGEQTWRARSVVLATPAYQTAELVAPFQPAIARVLATIPYPTVACVVLAYPAGLGRSVRPGFGVLIPRSQGIRTLGTIWSSCLFPQRTPAGWQVFTSTIGGATDPDLASLSEEAIVQQVQQDLNRLLDLPAAKARLLGMKVWRRAIPQYMVGYPEQWQQVTHALSQTPGLFLCSNYAEGVALGDRVEHGNRTAAAVAAYLSGGQP	++ (‘+’ per each 10-fold resistance)	++++ (‘+’ per each 10-fold resistance)	++ (‘+’ per each 10-fold resistance)	++ (‘+’ per each 10-fold resistance)	++++ (‘+’ per each 10-fold resistance)	+++ (‘+’ per each 10-fold resistance)	++++ (‘+’ per each 10-fold resistance)

— patent US12698507B2, “Methods and compositions for conferring and/or enhancing herbicide tolerance using protoporphyrinogen IX oxidase of various cyanobacteria or variant thereof” (FarmHannong Co., Ltd., priority 2019, dated 2026)
